This note sets out measurements from publication PMC12784961, “Structure of Bacillus subtilis Ku-mediated DNA synaptic complex”.

Series [1] deals with T1, bsKu core (wild type) (Bacillus subtilis, UniProt O34859 18-244).
T1 sequence: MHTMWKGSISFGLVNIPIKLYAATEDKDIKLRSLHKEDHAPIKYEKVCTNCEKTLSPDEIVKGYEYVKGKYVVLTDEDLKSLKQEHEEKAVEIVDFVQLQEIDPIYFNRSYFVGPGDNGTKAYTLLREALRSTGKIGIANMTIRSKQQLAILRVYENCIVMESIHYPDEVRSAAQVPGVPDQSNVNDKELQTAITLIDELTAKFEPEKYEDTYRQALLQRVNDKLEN
In words: cryo-EM; 2.74 A; two blunt ends bridged by two Ku homodimers; EMSA: 20 mM HEPES pH 7.5, 150 mM KCl, 1 mM DTT, 50 nM DNA, 30 min at 4°C, 15% native PAGE in 0.5x TBE, SYBR Gold; SEC: same buffer, protein:DNA 1:2, 1 h at 4°C, Superdex 75. The conditions noted are these: protein: recombinant, tags: N-terminal 8xHis-MBP, cleaved with PreScission protease, chain copies: 2. (A gel shift assay detects complexes by their altered migration in electrophoresis.)

The target in series [2] is T1, bsKu core (wild type). Description: size-exclusion chromatography; 1:1 complex, no oligomerization; EMSA: 20 mM HEPES pH 7.5, 150 mM KCl, 1 mM DTT, 50 nM DNA, 30 min at 4°C, 15% native PAGE in 0.5x TBE, SYBR Gold; SEC: same buffer, protein:DNA 1:2, 1 h at 4°C, Superdex 75. The conditions noted are these: protein: recombinant; tags: N-terminal 8xHis-MBP, cleaved with PreScission protease; chain copies: 2; 2-nt overhang; main text says at one end.

B1: 13-bp DNA (dsDNA)
DNA 1: GTACCTGTAGAAG
DNA 2: CTTCTACAGGTAC
As for B1, in series [1], the binding result is “binds”.

B2: 11-bp DNA with 2-nt overhang (dsDNA)
DNA 1: ACACACGCCGAGC
DNA 2: GCTCGGCGTGT
As for B2, the binding result in series [2] is listed as “binds”.
